Data taken from PMC7954794, “Protein context shapes the specificity of SH3 domain-mediated interactions in vivo” (Nature Communications, 2021).

System: growth of yeast strains under 51 stress conditions
Assay: Growth assays in 51 stress conditions (Fig. 1E-F, S2D, S5B)
Format: cell-based, Saccharomyces cerevisiae
Parameters: Sla1 strains growth distance: scale not given here
Settings: 51 stress conditions, Fig S5B
Method in brief: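 Colony sizes at 74 h on 51 stress media (37 °C) were log2 transformed, corrected for plate effects, and averaged across two plates as per-plate medians (growth score). Strains arrayed in 12 replicates with WT border, grown first on YPD for two days at 30 °C.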

B1: WT¦WT¦WT (protein, UniProt P32790 1-1244, looked up)
Actin cytoskeleton-regulatory …: MTVFLGIYRAVYAYEPQTPEELAIQEDDLLYLLQKSDIDDWWTVKKRVIGSDSEEPVGLVPSTYIEEAPVLKKVRAIYDYEQVQNADEELTFHENDVFDVFDDKDADWLLVKSTVSNEFGFIPGNYVEPENGSTSKQEQAPAAAEAPAATPAAAPASAAVLPTNFLPPPQHNDRARMMQSKEDQAPDEDEEGPPPAMPARPTATTETTDATAAAVRSRTRLSYSDNDNDDEEDDYYYNSNSNNVGNHEYNTEYHSWNVTEIEGRKKKKAKLSIGNNKINFIPQKGTPHEWSIDKLVSYDNEKKHMFLEFVDPYRSLELHTGNTTTCEEIMNIIGEYKGASRDPGLREVEMASKSKKRGIVQYDFMAESQDELTIKSGDKVYILDDKKSKDWWMCQLVDSGKSGLVPAQFIEPVRDKKHTESTASGIIKSIKKNFTKSPSRSRSRSRSKSNANASWKDDELQNDVVGSAAGKRSRKSSLSSHKKNSSATKDFPNPKKSRLWVDRSGTFKVDAEFIGCAKGKIHLHKANGVKIAVAADKLSNEDLAYVEKITGFSLEKFKANDGSSSRGTDSRDSERERRRRLKEQEEKERDRRLKERELYELKKARELLDEERSRLQEKELPPIKPPRPTSTTSVPNTTSVPPAESSNNNNSSNKYDWFEFFLNCGVDVSNCQRYTINFDREQLTEDMMPDINNSMLRTLGLREGDIVRVMKHLDKKFGRENIASIPTNATGNMFSQPDGSLNVATSPETSLPQQLLPQTTSPAQTAPSTSAETDDAWTVKPASKSESNLLSKKSEFTGSMQDLLDLQPLEPKKAAASTPEPNLKDLEPVKTGGTTVPAAPVSSAPVSSAPAPLDPFKTGGNNILPLSTGFVMMPMITGGDMLPMQRTGGFVVPQTTFGMQSQVTGGILPVQKTGNGLIPISNTGGAMMPQTTFGAAATVLPLQKTGGGLIPIATTGGAQFPQTSFNVQGQQQLPTGSILPVQKTANGLISANTGVSMPTVQRTGGTMIPQTSFGVSQQLTGGAMMTQPQNTGSAMMPQTSFNAVPQITGGAMMPQTSFNALPQVTGGAMMPLQRTGGALNTFNTGGAMIPQTSFSSQAQNTGGFRPQSQFGLTLQKTGGIAPLNQNQFTGGAMNTLSTGGVLQQQQPQTMNTFNTGGVMQELQMMTTFNTGGAMQQPQMMNTFNTDGIMQQPQMMNTFNTGGAMQQPQQQALQNQPTGFGFGNGPQQSRQANIFNATASNPFGF
How did the “Sla1 strains growth distance” value (distance to ABP1¦WT¦WT) turn out when B1 was run?
Its value is 32.7633.

And the “Sla1 strains growth distance” value (distance to ABP1¦WT¦WT, listed as WT¦WT¦WT*)?
Its value is 32.7344.

What about the “Sla1 strains growth distance” value (distance to D¦D¦D) of the same molecule?
The value was 13.1994.

And the “Sla1 strains growth distance” value (distance to D¦D¦D, listed as WT¦WT¦WT*)?
Its value is 13.2336.

What about the “Sla1 strains growth distance” value (distance to D¦WT¦D) of the same molecule?
Its value is 4.481.

And the “Sla1 strains growth distance” value (distance to D¦WT¦D, listed as WT¦WT¦WT*)?
The value was 4.3276.

What about the “Sla1 strains growth distance” value (distance to D¦WT¦SH3-1) of the same molecule?
Its value is 9.537.

And the “Sla1 strains growth distance” value (distance to D¦WT¦SH3-1, listed as WT¦WT¦WT*)?
The value was 9.613.

And the “Sla1 strains growth distance” value (distance to D¦WT¦SH3-2)?
The value was 5.1186.

What about the “Sla1 strains growth distance” value (distance to D¦WT¦SH3-2, listed as WT¦WT¦WT*) of the same molecule?
The value was 4.955.

And the “Sla1 strains growth distance” value (distance to D¦WT¦WT)?
The value was 4.59.

What about the “Sla1 strains growth distance” value (distance to D¦WT¦WT, listed as WT¦WT¦WT*) of the same molecule?
The value was 4.434.

What about the “Sla1 strains growth distance” value (distance to SH3-2¦SH3-1¦WT) of the same molecule?
Its value is 7.002.

What about the “Sla1 strains growth distance” value (distance to SH3-2¦SH3-1¦WT, listed as WT¦WT¦WT*) of the same molecule?
Its value is 6.862.

What about the “Sla1 strains growth distance” value (distance to SH3-2¦WT¦D) of the same molecule?
Its value is 9.252.

And the “Sla1 strains growth distance” value (distance to SH3-2¦WT¦D, listed as WT¦WT¦WT*)?
The value was 9.12.

What about the “Sla1 strains growth distance” value (distance to SH3-2¦WT¦WT) of the same molecule?
The value was 2.328.

And the “Sla1 strains growth distance” value (distance to SH3-2¦WT¦WT, listed as WT¦WT¦WT*)?
The value was 2.435.

What about the “Sla1 strains growth distance” value (distance to SH3-3¦SH3-1¦D) of the same molecule?
The value was 3.781.

And the “Sla1 strains growth distance” value (distance to SH3-3¦SH3-1¦D, listed as WT¦WT¦WT*)?
Its value is 3.648.

What about the “Sla1 strains growth distance” value (distance to SH3-3¦SH3-1¦SH3-2) of the same molecule?
The value was 4.4511.

What about the “Sla1 strains growth distance” value (distance to SH3-3¦SH3-1¦SH3-2, listed as WT¦WT¦WT*) of the same molecule?
The value was 4.2977.

What about the “Sla1 strains growth distance” value (distance to SH3-3¦WT¦D) of the same molecule?
Its value is 11.8089.

And the “Sla1 strains growth distance” value (distance to SH3-3¦WT¦D, listed as WT¦WT¦WT*)?
Its value is 11.8591.

What about the “Sla1 strains growth distance” value (distance to SH3-3¦WT¦SH3-1) of the same molecule?
The value was 11.5081.

What about the “Sla1 strains growth distance” value (distance to SH3-3¦WT¦SH3-1, listed as WT¦WT¦WT*) of the same molecule?
Its value is 11.5693.

What about the “Sla1 strains growth distance” value (distance to SH3-3¦WT¦WT) of the same molecule?
Its value is 11.7278.

What about the “Sla1 strains growth distance” value (distance to SH3-3¦WT¦WT, listed as WT¦WT¦WT*) of the same molecule?
The value was 11.7806.

What about the “Sla1 strains growth distance” value (distance to WT*¦WT¦WT) of the same molecule?
Its value is 0.6236.

And the “Sla1 strains growth distance” value (distance to WT*¦WT¦WT, listed as WT¦WT¦WT*)?
The value was 0.5854.

What about the “Sla1 strains growth distance” value (distance to WT¦ABP1¦WT) of the same molecule?
The value was 11.3779.

What about the “Sla1 strains growth distance” value (distance to WT¦ABP1¦WT, listed as WT¦WT¦WT*) of the same molecule?
The value was 11.4192.

And the “Sla1 strains growth distance” value (distance to WT¦D¦D)?
Its value is 4.458.

What about the “Sla1 strains growth distance” value (distance to WT¦D¦D, listed as WT¦WT¦WT*) of the same molecule?
The value was 4.315.

And the “Sla1 strains growth distance” value (distance to WT¦D¦SH3-2)?
The value was 5.097.

And the “Sla1 strains growth distance” value (distance to WT¦D¦SH3-2, listed as WT¦WT¦WT*)?
The value was 4.943.

What about the “Sla1 strains growth distance” value (distance to WT¦D¦WT) of the same molecule?
The value was 5.311.

What about the “Sla1 strains growth distance” value (distance to WT¦D¦WT, listed as WT¦WT¦WT*) of the same molecule?
The value was 5.149.

What about the “Sla1 strains growth distance” value (distance to WT¦SH3-1¦D) of the same molecule?
The value was 0.4704.

What about the “Sla1 strains growth distance” value (distance to WT¦SH3-1¦D, listed as WT¦WT¦WT*) of the same molecule?
Its value is 0.4379.

And the “Sla1 strains growth distance” value (distance to WT¦SH3-1¦WT)?
Its value is 0.4878.

What about the “Sla1 strains growth distance” value (distance to WT¦SH3-1¦WT, listed as WT¦WT¦WT*) of the same molecule?
The value was 0.5418.

What about the “Sla1 strains growth distance” value (distance to WT¦SH3-3¦D) of the same molecule?
Its value is 5.1001.

What about the “Sla1 strains growth distance” value (distance to WT¦SH3-3¦D, listed as WT¦WT¦WT*) of the same molecule?
Its value is 4.947.

And the “Sla1 strains growth distance” value (distance to WT¦SH3-3¦SH3-2)?
The value was 5.331.

And the “Sla1 strains growth distance” value (distance to WT¦SH3-3¦SH3-2, listed as WT¦WT¦WT*)?
Its value is 5.179.

And the “Sla1 strains growth distance” value (distance to WT¦SH3-3¦WT)?
The value was 4.703.

What about the “Sla1 strains growth distance” value (distance to WT¦SH3-3¦WT, listed as WT¦WT¦WT*) of the same molecule?
Its value is 4.556.

What about the “Sla1 strains growth distance” value (distance to WT¦WT*¦WT) of the same molecule?
The value was 0.917.

And the “Sla1 strains growth distance” value (distance to WT¦WT*¦WT, listed as WT¦WT¦WT*)?
Its value is 0.7508.

What about the “Sla1 strains growth distance” value (distance to WT¦WT¦ABP1) of the same molecule?
The value was 1.932.

And the “Sla1 strains growth distance” value (distance to WT¦WT¦ABP1, listed as WT¦WT¦WT*)?
The value was 1.926.

And the “Sla1 strains growth distance” value (distance to WT¦WT¦D)?
Its value is 0.5681.

What about the “Sla1 strains growth distance” value (distance to WT¦WT¦D, listed as WT¦WT¦WT*) of the same molecule?
The value was 0.4359.

What about the “Sla1 strains growth distance” value (distance to WT¦WT¦SH3-1) of the same molecule?
Its value is 0.5772.

And the “Sla1 strains growth distance” value (distance to WT¦WT¦SH3-1, listed as WT¦WT¦WT*)?
Its value is 0.4107.

And the “Sla1 strains growth distance” value (distance to WT¦WT¦SH3-2)?
Its value is 0.55.

What about the “Sla1 strains growth distance” value (distance to WT¦WT¦SH3-2, listed as WT¦WT¦WT*) of the same molecule?
Its value is 0.3776.

What about the “Sla1 strains growth distance” value (distance to WT¦WT¦WT*) of the same molecule?
Its value is 0.496.

And the “Sla1 strains growth distance” value (distance to WT¦WT¦WT*, listed as WT¦WT¦WT*)?
The value was 0.

And the “Sla1 strains growth distance” value (distance to WT¦WT¦WT)?
The value was 0.

What about the “Sla1 strains growth distance” value (distance to WT¦WT¦WT, listed as WT¦WT¦WT*) of the same molecule?
The value was 0.496.
